Patent US20030119090

Tests used:
[1] = target: T1, Boc-Tyr-Thr(α-Man)-Val-OMe (Compound 10)
T1 chain: YTV

[2] = target: T2, Cbz-Thr(α-Man)-Val-Gly-Ala-NH2 (Compound 9)
T2 chain: TVGA

[3] = target: T3, Cbz-Thr(α-Man)-Val-OMe (Compound 7)
T3 chain: TV

[4] = target: T4, Cbz-Thr(αManα1,2Man)-Val-OMe (Compound 11)
T4 chain: TV

[5] = target: T5, Thr(α-Man)-Val-OMe (Compound 8)
T5 chain: TV

B1: recombinant α1,2-mannosyltransferase (soluble catalytic domain, protein sequence 31-442 of α1,2-ManT from S. cerevisiae, expressed from pManflag20 in the E. … (protein)
chain: RTQQYIPSSISAAFDFTSGSISPEQQVISEENDAKKLEQSALNSEASEDSEAMDEESKALKAAAEKADAPIDTKTTMDYITPSFANKAGKPKACYVTLVRNKELKGLLSSIKYVENKINKKFPYPWVFLNDEPFTEEFKEAVTKAVSSEVKFGILPKEHWSYPEWINQTKAAEIRADAATKYIYGGSESYRHMCRYQSGFFWRHELLEEYDWYWRVEPDIKLYCDINYDVFKWMQENEKVYGFTVSIHEYEVTIPTLWQTSMDFIKKNPEYLDENNLMSFLSNDNGKTYNLCHFWSNFEIANLNLWRSPAYREYFDTLDHQGGFFYERWGDAPVHSIAAALFLPKDKIHYFSDIGYHHPPYDNCPLDKEVYNSNNCECDQGNDFTFQGYSCGKEYYDAQGLVKPKNWKKFRE
Km (acceptor), mannosyl transfer reaction [1]: 0.7 mM
Km, fold lower than that of Compound 7 [1]: This value is 10 times less than that of Compound 7
Km, fold lower than that of ManαOMe (Compound 1) [1]: 80 times smaller than that of ManαOMe (Compound 1)
Vrelative (ratio of Vmax, ManαOMe = 1.0), mannosyl transfer from GDP-Man to acceptor [1]: 0.35
Vrelative (ratio of Vmax, ManαOMe = 1.0), mannosyl transfer from GDP-Man to acceptor [2]: 0.55
Km (acceptor), mannosyl transfer reaction [3]: 7.8 mM
Vrelative (ratio of Vmax, ManαOMe = 1.0), mannosyl transfer from GDP-Man to acceptor [3]: 0.71
Km (acceptor), mannosyl transfer reaction [4]: 26 mM
Vrelative (ratio of Vmax, ManαOMe = 1.0), mannosyl transfer from GDP-Man to acceptor [4]: 0.17
Vrelative (ratio of Vmax, ManαOMe = 1.0), mannosyl transfer from GDP-Man to acceptor [5]: 0.68
